Data: patent publication US20140348834A1 (published 2014)
Changes are numbered by the printed parent chain.

B1: IL17-h10F7.5 (antibody, V domains shown)
VH: EVQLVQSGAEVKKPGSSVKVSCKASGYTFTDYEIHWVRQAPGQGLEWMGVNDPESGGTFYNQKFDGRVTITADKSTSTAYMELSSLRSEDTAVYYCARYYRYESFYGMDYWGQGTTVTVSS
VL: DIQLTQSPSSLSASVGDRVTITCSASSSISYIYWFQQKPGKSPKRWIYATFELASGVPSRFSGSGSGTDYTLTISSLQPEDFATYYCHQRSSYPWTFGQGTKLEIKR
notes: IgG; constant regions not specified
B2: IL17-h10F7.1 (antibody, V domains shown)
VH: B1 VH with M48I, V68A, I70L, A97T
VL: QIVLTQSPAIMSASPGEKVTMTCSASSSISYIYWFQQKPGTSPKRWIYATFELASGVPARFSGSGSGTSYSLTISSMEAEDAATYYCHQRSSYPWTFGGGSKLEIKR
notes: Cloned into IgG expression vectors; constant regions not specified
B3: IL17-h10F7.10 (antibody, V domains shown)
VH: B1 VH
VL: EIVLTQSPDFQSVTPKEKVTITCSASSSISYIYWFQQKPDQSPKRWIYATFELASGVPSRFSGSGSGTDYTLTINSLEAEDAATYYCHQRSSYPWTFGQGTKLEIKR
notes: as for B1
B4: IL17-h10F7.16 (antibody, V domains shown)
VH: B1 VH
VL: B3 VL with E1Q
notes: as for B1
B5: IL17-h10F7.14 (antibody, V domains shown)
VH: B1 VH
VL: B1 VL with D1E, Q3V
notes: as for B1
B6: IL17-h10F7.12 (antibody, V domains shown)
VH: B1 VH
VL: B1 VL with D1Q, Q3V
notes: as for B1
B7: IL17-h10F7.8 (antibody, V domains shown)
VH: B1 VH with M48I, V68A, I70L, A97T
VL: B3 VL with F35Y, R45L, W46L, Y48K, Y70F
notes: as for B1
B8: IL17-h10F7.7 (antibody, V domains shown)
VH: B1 VH
VL: B3 VL with F35Y, R45L, W46L, Y48K, Y70F
notes: as for B1
B9: IL17-h10F7.3 (antibody, V domains shown)
VH: B1 VH with M48I, V68A, I70L, A97T
VL: B1 VL with L4M, F35Y, S42A, W46L, Y70F
notes: as for B1
B10: IL17-h5C5.12 (antibody, V domains shown)
VH: EVQLVQSGAEVKKPGASVKVSCKASGYTFTDYEFHWVRQAPGQGLEWIGVIHPGNGGTAYNQNFRDRATLTADKSTSTAYMELSSLRSEDTAVYYCTRFLTYEGYFDYWGQGTLVTVSS
VL: EIVMTQSPATLSVSPGERATLSCKASQSVSIDVGWYQQKPGQAPRLLIYHASNRYTGIPARFSGSGSGTDFTLTISSLQPEDFAVYYCQQDYSSPYTFGQGTKLEIKR
notes: as for B1
B11: IL17-h5C5.13 (antibody, V domains shown)
VH: QVQLQQSGAELVRPGASVKLSCKALGYTFTDYEFHWVKQTPVHGLEWIGVIHPGNGGTAYNQNFRDKATLTADKSSSTAYMELSSLTSEDSGVYYCTRFLTYEGYFDYWGQGTALTVSS
VL: B10 VL with Y36F, A43S, I58V, Y87F
notes: as for B1
B12: IL17-h5C5.17 (antibody, V domains shown)
VH: B10 VH with I48M, A68V, L70I, T97A
VL: NIVMTQSPSSLSASVGDRVTITCKASQSVSIDVGWFQQKPGKSPKLLIYHASNRYTGVPSRFSGSGSGTDFTFTISSLQPEDFATYFCQQDYSSPYTFGQGTKLEIKR
notes: as for B1
B13: IL17-h5C5.6 (antibody, V domains shown)
VH: B10 VH
VL: B12 VL with N1D, V3Q, F36Y, S43A, F87Y
notes: as for B1
B14: IL17-h5C5.10 (antibody, V domains shown)
VH: B11 VH
VL: B10 VL
notes: as for B1
B15: IL17-h5C5.5 (antibody, V domains shown)
VH: B10 VH with I48M, A68V, L70I, T97A
VL: B12 VL with N1D, V3Q, F36Y, S43A, F87Y
notes: as for B1
B16: IL17-h5C5.1 (antibody, V domains shown)
VH: B11 VH
VL: NIVMTQTPKFLLVSPGDRVTITCKASQSVSIDVGWFQQKPGQSPKLLIYHASNRYTGVPDRFTGSGYGTDFTFTVNTVQAEDLAVYFCQQDYSSPYTFGGGTKLELKR
notes: as for B1
B17: IL17-h5C5.7 (antibody, V domains shown)
VH: B11 VH
VL: B12 VL with N1D, V3Q
notes: as for B1
B18: IL17-h5C5.16 (antibody, V domains shown)
VH: B11 VH
VL: B12 VL
notes: as for B1
B19: IL17-TN-L7-G9 (antibody, V domains shown)
VH: EVQLLESGGGVVQPGRSLRLSCAASGFIFSNYGMHWVRQAPGKGLEWVAVISYDGSNKYYADSVKGRFTISRDNSKNTLYLEMNSLRPEDTAVYYCAKVGASGDYYYSYGLDVWGQGTTVTVSS
VL: QSGLTQPPSASGTPGQTVSISCSGSNSNIGSHSVNWYQQVPGAAPKLLMYGIGQRPSGVPDRFSVSQSGTSASLAISGLQSEDEADYYCATWDDSLGGYVFGSGTKVTVLG
notes: Fully human antibody
B20: IL17-G9-4 (antibody, V domains shown)
VH: B19 VH
VL: QSVLTQPPSASGTPGQTVSISCSGRQSNIGRHYVDWYQQVPGAAPKLLMYYDSIRPSGVPDRFSGSQSGTSASLAISGLQSEDEADYYCATWDDSLGGYVFGSGTKVTVLG
notes: converted into IgG
B21: IL17-G9-1 (antibody, V domains shown)
VH: B19 VH
VL: B20 VL with R25S, Q26H, Y33P, D52G, S53G, I54Y, S95R, G97V
B22: IL17-G9-2 (antibody, V domains shown)
VH: B19 VH with S30R
VL: B20 VL with R25S, Q26N, Y33P, M49I, S53D, I54Q

biological target: T1, human IL-17A (human, UniProt Q16552 24-155); assay: hIL17A ELISA
T1 construct: Recombinant; biotinylated in the ELISA; also called hIL-17; hIL17A
T1 sequence (Q16552 24-155): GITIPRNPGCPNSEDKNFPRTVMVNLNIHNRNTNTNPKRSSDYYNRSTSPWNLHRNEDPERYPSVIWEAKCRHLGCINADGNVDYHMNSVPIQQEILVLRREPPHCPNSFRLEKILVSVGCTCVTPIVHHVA

**Q.** For B1, which EC50 is on record?
**A.** 0.06 nM

**Q.** For B2, which EC50 is on record?
**A.** 1.7 nM

**Q.** For B3, which EC50 is on record?
**A.** 0.04 nM

**Q.** How did the EC50 turn out when B4 was run?
**A.** 0.09 nM

**Q.** Which EC50 does the source give for B5 here?
**A.** 0.13 nM

**Q.** With B6 as the binder, how does the EC50 read?
**A.** 0.14 nM

**Q.** How did the EC50 turn out when B7 was run?
**A.** 3.9 nM

**Q.** How did the EC50 turn out when B8 was run?
**A.** 0.05 nM

**Q.** B9 was tested. Which EC50 did it give?
**A.** 0.05 nM

**Q.** How did the EC50 turn out when B10 was run?
**A.** 0.23 nM

**Q.** For B11, which EC50 is on record?
**A.** 0.03 nM

**Q.** Which EC50 does the source give for B12 here?
**A.** 0.03 nM

**Q.** With B13 as the binder, how does the EC50 read?
**A.** 0.11 nM

**Q.** B14 was tested. Which EC50 did it give?
**A.** 0.05 nM

**Q.** For B15, which EC50 is on record?
**A.** 0.05 nM

**Q.** With B16 as the binder, how does the EC50 read?
**A.** 1 nM

**Q.** Which EC50 does the source give for B17 here?
**A.** 0.03 nM

**Q.** For B18, which EC50 is on record?
**A.** 0.02 nM

biological target: T2, human IL-17A (human, UniProt Q16552 24-155); assay: SPR Biacore, captured binder
T2 construct: Purified recombinant; biotinylated in the ELISA; also called HuIL-17A; Hu IL-17A
T2 sequence (Q16552 24-155 limits assumed): as the sequence (Q16552 24-155) above
Protocol: (§1) The binding of antibodies to purified recombinant human, cyno, rat, mouse, rabbit IL-17 and human IL-17A/F were determined by surface plasmon resonance-based measurements with a Biacore® 3000 instrument (Biacore® AB, Uppsala, Sweden) using running HBS-EP (10 mM HEPES [pH 7.4], 150 mM NaCl, 3 mM EDTA, and 0.005% surfactant P20) at 25° C. […] Approximately 5000 RU of goat anti-mouse or anti-human IgG (Fcγ) fragment specific polyclonal antibody (Pierce Biotechnology Inc, Rockford, Ill.) diluted in 10 mM sodium acetate (pH 4.5) was directly immobilized across a CM5 research grade biosensor chip using a standard amine coupling kit according to manufacturer's instructions and procedures at 25 μg/ml. Unreacted moieties on the biosensor surface were blocked with ethanolamine. Modified carboxymethyl dextran surface in flowcell 2 and 4 was used as a reaction surface. Unmodified carboxymethyl dextran without goat anti-mouse or anti-human IgG in flow cell 1 and 3 was used as the reference surface. For kinetic analysis, rate equations derived from the 1:1 Langmuir binding model were fitted simultaneously to association and dissociation phases of all eight injections (using global fit analysis) with the use of Biaevaluation 4.0.1 software. Purified antibodies were diluted in HEPES-buffered saline for capture across goat anti-mouse or anti-human IgG specific reaction surfaces. Antibodies to be captured as a ligand (25 μg/ml) were injected over reaction matrices at a flow rate of 5 μl/min. The association and dissociation rate constants, kon (unit M-1s-1) and koff (unit s-1) were determined under a continuous flow rate of 25 μl/min. Rate constants were derived by making kinetic binding measurements at ten different antigen concentrations ranging from 10 nM to 200 nM. The equilibrium dissociation constant (unit M) of the reaction between antibodies and recombinant purified IL-17 antigens was then calculated from the kinetic rate constants by the following formula: KD=koff/kon. Binding was recorded as a function of time and kinetic rate constants are calculated. In this assay, on-rates as fast as 10⁶ M⁻¹ s⁻¹ and off-rates as slow as 10⁻⁶ s⁻¹ can be measured.

**Q.** What does the source list for B19?
**A.** Kd: 0.28 nM; koff: 8.65e-05 s⁻¹; kon: 309000 M⁻¹ s⁻¹

**Q.** What does the source list for B20?
**A.** Kd: 0.00469 nM; koff: 1e-06 s⁻¹; kon: 213000 M⁻¹ s⁻¹

**Q.** With B21 as the binder, how does the Kd read?
**A.** 0.0257 nM

**Q.** What about the koff of the same binder?
**A.** 1.05e-05 s⁻¹

**Q.** And the kon?
**A.** 408000 M⁻¹ s⁻¹

**Q.** How did the Kd turn out when B22 was run?
**A.** < 0.00433 nM

**Q.** And the koff?
**A.** < 1e-06 s⁻¹

**Q.** And the kon?
**A.** 231000 M⁻¹ s⁻¹

biological target: T3, human IL-17A/F (human, UniProt Q16552 24-155; Q96PD4 31-163); assay: SPR Biacore, captured binder
T3 construct: Heterodimer of IL-17A and IL-17F, purified recombinant; also called HuIL-17A/F; Hu IL-17A/F
T3 sequence (Q16552 24-155 limits assumed, chain 1 of 2): as the sequence (Q16552 24-155) above
T3 sequence (Q96PD4 31-163 limits assumed, chain 2 of 2): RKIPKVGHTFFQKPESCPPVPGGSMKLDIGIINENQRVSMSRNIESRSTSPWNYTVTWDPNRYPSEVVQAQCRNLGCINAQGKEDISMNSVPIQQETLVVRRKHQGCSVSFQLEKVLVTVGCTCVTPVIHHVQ
Protocol: as §1

**Q.** What does the source list for B19?
**A.** Kd: 0.907 nM; koff: 9.7e-05 s⁻¹; kon: 107000 M⁻¹ s⁻¹

**Q.** What does the source list for B20?
**A.** Kd: 0.00424 nM; koff: 1e-06 s⁻¹; kon: 236000 M⁻¹ s⁻¹

**Q.** What does the source list for B21?
**A.** Kd: 0.00313 nM; koff: 1e-06 s⁻¹; kon: 320000 M⁻¹ s⁻¹

**Q.** Which results are given for B22?
**A.** Kd: 0.437 nM; koff: 8.66e-05 s⁻¹; kon: 198000 M⁻¹ s⁻¹

biological target: cyno IL-17A (cynomolgus monkey, UniProt A0A2K5TTB0 24-155); assay: SPR Biacore, captured binder
Sequence (A0A2K5TTB0 entry or part of it): as the sequence (Q16552 24-155) above, with T3A, P8S, N34S, I77V, N78K, P104R counted along it
Protocol: as §1

**Q.** What does the source list for B19?
**A.** Kd: 2070 pM; koff: 0.000199 s⁻¹; kon: 96000 M⁻¹ s⁻¹

**Q.** With B20 as the binder, how does the Kd read?
**A.** 3.77 pM

**Q.** What about the koff of the same binder?
**A.** 1e-06 s⁻¹

**Q.** And the kon?
**A.** 265000 M⁻¹ s⁻¹

**Q.** With B21 as the binder, how does the Kd read?
**A.** 2.96 pM

**Q.** And the koff?
**A.** 1e-06 s⁻¹

**Q.** And the kon?
**A.** 338000 M⁻¹ s⁻¹

**Q.** Which results are given for B22?
**A.** Kd: < 2.7 pM; koff: < 1e-06 s⁻¹; kon: 371000 M⁻¹ s⁻¹
